B1: CPEB3 Ribozyme (parent)
chain: GGGGGCCACAGCAGAAGCGUUCACGUCGCGGCCCCUGUCAGAUUCUGGUGAAUCUGCGAAUUCUGCUGU

Among the data in the RNAGym collection of RNA variant scans (doi:10.7554/elife.80360) are self-cleavage values, retold here.

The data set covers variants of B1. Description: self-cleavage, relative activity (ratio to wild type); higher = more cleavage; co-transcriptional.
Turning to G5A G30U, the self-cleavage worked out at 0.125. Under G5A A15U stands 0.355; under G5A A15C, 0.263; under G5C C29A, 0.144. The value for G5C C29U was 0.133; that for G5U A13U was 0.139. Under G5U A13G stands 0.271; under G5C G25U, 0.0626. On to G5C G25C, for which the self-cleavage stood at 0.0981. Under G4U U43G stands 0.389. Under G4U U43A stands 0.455; under G5U C32G, 0.815. The value for G5U C32A was 0.953; that for G5U C32U was 0.568; that for G4U U55A was 0.496. Consider G4U U55G, for which the self-cleavage was 0.203. The value for G4U U55C was 0.298; that for G5U A10U was 0.581; that for G5U A10C was 0.604. Under G5U A10G stands 0.543; under G5C C7G, 0.293; under G5C C7A, 0.684. Under G5C C63G stands 0.109.

As for G5C C63A, the self-cleavage came out at 0.119. The value for G5C C63U was 0.207; that for G5C G48A was 0.217.

For G5C G30C, the self-cleavage amounted to 0.124. Under G5C G30U stands 0.0983; under G5C G30A, 0.177. The value for G5A A10U was 0.953. Under G5A A10G stands 0.915. Take G5A A10C: the self-cleavage is 0.914. G4U U64G: the self-cleavage was 0.589. Take G4U U64A: the self-cleavage worked out at 0.535. Under G4U U64C stands 0.602. As to G5A A40G, the self-cleavage worked out at 0.866. As to G5A A40C, the self-cleavage was found to be 0.213. The value for G5C A52G was 0.287; that for G5C A52C was 0.259. The value for G5C A52U was 0.123; that for G5A C35U was 0.365; that for G5A C35A was 0.203. For the variant G5A C35G, the self-cleavage was 0.134. Under G5C U64A stands 0.246; under G5C U64G, 0.105; under G5C U64C, 0.262. The value for G5C C18U was 0.148. In the case of G5C C18A, the self-cleavage was 0.097. The value for G5C C18G was 0.12. The value for G5A U62C was 0.423; that for G5U A42C was 0.0793. The value for G5U A42U was 0.118. On to G5U A42G, for which the self-cleavage amounted to 0.343.

As to G4U U69A, the self-cleavage was 0.952. The value for G5A C12A was 0.532; that for G5A C12G was 0.488. The value for G5C U38G was 0.0921; that for G5C C33G was 0.227; that for G5C C33A was 0.302. On to G5C C9A, for which the self-cleavage was 0.386.

Turning to G5C C9G, the self-cleavage was 0.487. Under G5C C9U stands 0.412; under G5C G65U, 0.0855; under G5C G65A, 0.158. The value for G5C G65C was 0.106. Consider G5C A51G, for which the self-cleavage worked out at 0.228.

On to G5C A51C, for which the self-cleavage came to 0.152. Under G5C A51U stands 0.269; under G5A C57A, 0.224; under G5A C57G, 0.234. Under G5A C57U stands 0.304; under G5A U69G, 1.03. Under G5A U69C stands 1.05. In the case of G5A U69A, the self-cleavage was 0.994.

For G5C G56A, the self-cleavage turned out to be 0.158. The value for G5A C24G was 0.0961; that for G5A C24U was 0.378.

In the case of G5A C24A, the self-cleavage came out at 0.341. Under G5C A10G stands 0.289; under G5C A10C, 0.176; under G5C G19A, 0.126. With G5C G19U, the self-cleavage was determined as 0.121. Under G4U U67A stands 0.9; under G4U U67C, 0.946.

As to G5A A8C, the self-cleavage is 0.953. With G5A A8U, the self-cleavage was 0.894. The value for G5A A8G was 0.725.

For the variant G5A C33G, the self-cleavage is 0.136.

For the variant G5A C33A, the self-cleavage was determined as 0.296. Under G5A C6U stands 0.189; under G5A C6A, 0.103; under G5A U64G, 0.729. As to G5A U64C, the self-cleavage worked out at 0.676. The value for G5A U64A was 0.71. The value for G5A A42U was 0.71. The value for G5A A42G was 0.812. On to G5A U46C, for which the self-cleavage was 0.945. Turning to G5A C66G, the self-cleavage is 0.826. The value for G5A C66A was 0.727.

On to G5C G68U, for which the self-cleavage came out at 0.483. On to G5C G68C, for which the self-cleavage stood at 0.317. The value for G5C G68A was 0.473; that for G4U U38A was 0.73. Under G4U U38C stands 0.525; under G5A C54A, 0.546. Under G5A C54G stands 0.394; under G5A C54U, 0.893; under G5U C27U, 0.032. For G5U C27G, the self-cleavage stood at 0.0619.

Take G5U C24U: the self-cleavage amounted to 0.0968.

Consider G5U C24G, for which the self-cleavage came to 0.0967. The value for G5C C57G was 0.098; that for G5C C57A was 0.0507. Under G5C U26A stands 0.156.

Take G5C U26G: the self-cleavage is 0.228. Under G4U U46C stands 0.751; under G4U U46A, 0.746. Take G4U U46G: the self-cleavage was 0.803. Under G5A G47C stands 0.914; under G5A G47A, 0.964.

For G4U U26G, the self-cleavage amounted to 0.3. The value for G5C U46A was 0.265; that for G5C U46C was 0.267; that for G5U A52U was 0.232.

With G5U A52G, the self-cleavage was determined as 0.266. Under G5U A8G stands 0.228; under G5U A8C, 0.346. Under G5A A16G stands 0.811; under G5A A16U, 0.639; under G4U U53A, 0.412. The value for G4U U53G was 0.226. Turning to G4U U53C, the self-cleavage was 0.323. The value for G5C U69G was 0.437; that for G5C U69A was 0.307. Regarding G5A G48A, the self-cleavage turned out to be 0.918.

G5C C66U: the self-cleavage turned out to be 0.151. G5C U43G: the self-cleavage was determined as 0.219. As for G5C U43C, the self-cleavage was found to be 0.173. As for G5A C34G, the self-cleavage was 0.155.

As for G5C U21A, the self-cleavage was found to be 0.134.

Turning to G5C U21G, the self-cleavage was 0.114. The value for G5C U21C was 0.149; that for G5A C39A was 0.533; that for G5A C39G was 0.752. With G5C C39U, the self-cleavage was determined as 0.184.

As to G5C C39G, the self-cleavage was determined as 0.199. Under G5C C39A stands 0.134. Regarding G5A U26A, the self-cleavage stood at 0.498. The value for G5A U26G was 0.611; that for G5A U26C was 0.853; that for G5A G31A was 0.158. Under G5A G31U stands 0.221. Under G5A G31C stands 0.118; under G5A U21C, 0.56. Consider G5A U21A, for which the self-cleavage stood at 0.837. Under G4U U61C stands 0.174; under G5C G41U, 0.186. Under G5C G41A stands 0.194; under G5C G41C, 0.188; under G5A G41U, 0.488. Under G5A G41C stands 0.359; under G5A G41A, 0.512; under G5C C22U, 0.0752. Turning to G5C C22G, the self-cleavage is 0.0735.

G5U A16G: the self-cleavage stood at 0.14. The value for G5U A16U was 0.127; that for G5A G25C was 0.137.
